Earlier results in patent publication US20080279765A1, “Novel Imaging Agents for Fibrosis” (priority 2005, published 2008).
Where two headings read alike, the source gives them in different places.

Columns and labels:
M6P receptor [1] = molecular target: T1, M6P receptor (Homo sapiens, UniProt P11717); conditions: pH 7.4; read-out: Kd of binding to the M6P receptor
M6P receptor [2] = molecular target: T1, M6P receptor; conditions: site on M6P receptor distinct from the IGF-II binding site

T1 sequence (P11717 41-2491): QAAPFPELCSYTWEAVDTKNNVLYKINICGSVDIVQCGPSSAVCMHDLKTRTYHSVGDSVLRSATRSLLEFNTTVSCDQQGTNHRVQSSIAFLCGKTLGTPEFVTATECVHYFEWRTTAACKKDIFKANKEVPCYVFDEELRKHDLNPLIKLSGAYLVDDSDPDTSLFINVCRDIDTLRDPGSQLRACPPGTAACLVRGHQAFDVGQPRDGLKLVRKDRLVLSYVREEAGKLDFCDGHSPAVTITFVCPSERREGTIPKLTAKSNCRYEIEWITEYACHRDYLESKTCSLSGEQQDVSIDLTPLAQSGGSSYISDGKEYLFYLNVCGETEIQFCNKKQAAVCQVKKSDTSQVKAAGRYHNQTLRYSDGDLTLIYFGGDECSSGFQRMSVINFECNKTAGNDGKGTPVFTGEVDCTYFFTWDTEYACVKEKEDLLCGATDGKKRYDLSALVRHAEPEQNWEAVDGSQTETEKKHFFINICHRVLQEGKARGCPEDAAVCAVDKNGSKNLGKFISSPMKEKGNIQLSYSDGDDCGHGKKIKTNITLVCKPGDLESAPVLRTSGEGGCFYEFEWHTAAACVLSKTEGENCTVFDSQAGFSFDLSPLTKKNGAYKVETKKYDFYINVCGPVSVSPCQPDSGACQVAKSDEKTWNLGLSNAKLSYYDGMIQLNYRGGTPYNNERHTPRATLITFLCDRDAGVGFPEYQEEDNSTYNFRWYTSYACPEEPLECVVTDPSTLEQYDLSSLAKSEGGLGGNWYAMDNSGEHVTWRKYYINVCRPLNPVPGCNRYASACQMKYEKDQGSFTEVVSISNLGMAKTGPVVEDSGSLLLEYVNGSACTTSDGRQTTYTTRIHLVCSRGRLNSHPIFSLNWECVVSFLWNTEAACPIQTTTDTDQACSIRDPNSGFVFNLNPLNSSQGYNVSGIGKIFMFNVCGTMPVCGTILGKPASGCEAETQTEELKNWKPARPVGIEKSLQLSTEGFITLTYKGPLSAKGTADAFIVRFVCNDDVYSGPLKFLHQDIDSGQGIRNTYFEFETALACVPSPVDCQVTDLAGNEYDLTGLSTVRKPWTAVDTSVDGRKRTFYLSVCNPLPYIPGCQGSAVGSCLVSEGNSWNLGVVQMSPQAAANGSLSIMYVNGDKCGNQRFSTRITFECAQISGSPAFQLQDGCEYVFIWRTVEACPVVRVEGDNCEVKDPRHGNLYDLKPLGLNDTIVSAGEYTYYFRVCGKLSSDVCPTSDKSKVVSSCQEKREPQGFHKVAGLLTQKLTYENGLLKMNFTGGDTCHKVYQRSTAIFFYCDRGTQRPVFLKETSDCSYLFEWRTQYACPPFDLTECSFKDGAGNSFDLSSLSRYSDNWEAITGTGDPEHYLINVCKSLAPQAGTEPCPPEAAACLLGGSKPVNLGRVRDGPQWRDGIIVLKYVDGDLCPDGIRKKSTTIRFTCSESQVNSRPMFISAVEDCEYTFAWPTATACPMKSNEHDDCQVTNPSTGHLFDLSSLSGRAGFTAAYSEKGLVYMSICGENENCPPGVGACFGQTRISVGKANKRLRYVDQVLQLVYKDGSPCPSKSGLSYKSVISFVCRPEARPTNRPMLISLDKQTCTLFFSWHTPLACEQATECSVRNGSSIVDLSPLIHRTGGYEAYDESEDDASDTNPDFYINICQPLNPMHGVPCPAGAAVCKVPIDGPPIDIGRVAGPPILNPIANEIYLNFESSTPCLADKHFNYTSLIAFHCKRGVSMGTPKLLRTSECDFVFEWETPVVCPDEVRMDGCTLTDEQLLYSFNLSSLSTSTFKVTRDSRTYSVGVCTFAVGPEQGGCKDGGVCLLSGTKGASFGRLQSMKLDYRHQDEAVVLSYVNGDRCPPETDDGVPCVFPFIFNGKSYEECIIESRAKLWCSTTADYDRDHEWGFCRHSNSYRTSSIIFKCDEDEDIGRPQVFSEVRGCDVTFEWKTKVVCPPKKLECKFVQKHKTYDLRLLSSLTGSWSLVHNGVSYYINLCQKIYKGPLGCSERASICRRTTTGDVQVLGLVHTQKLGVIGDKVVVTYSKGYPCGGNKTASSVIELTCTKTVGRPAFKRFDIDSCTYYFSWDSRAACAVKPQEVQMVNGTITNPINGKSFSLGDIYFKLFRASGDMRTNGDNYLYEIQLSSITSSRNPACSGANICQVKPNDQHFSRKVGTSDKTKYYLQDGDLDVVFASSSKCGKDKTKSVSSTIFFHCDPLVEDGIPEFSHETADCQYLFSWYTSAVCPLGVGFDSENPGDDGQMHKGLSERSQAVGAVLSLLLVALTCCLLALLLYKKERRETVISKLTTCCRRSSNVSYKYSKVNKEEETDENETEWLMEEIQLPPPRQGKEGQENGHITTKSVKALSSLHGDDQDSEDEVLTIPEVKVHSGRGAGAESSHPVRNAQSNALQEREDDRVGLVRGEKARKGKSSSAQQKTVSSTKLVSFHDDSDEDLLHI

| Kd (M6P receptor [1]) [nM] | Kd (M6P receptor [2]) [nM] | Substance |
| --- | --- | --- |
| 0.3 to 14 | – | IGF-II: non-glycosylated single chain of 67 amino acid residues, SEQ ID NO. 1 |
| – | 2.4 | retinoic acid |
